The nanobody polyreactivity screen of Harvey et al. (2022)

Assay: yeast display, Sf9 membrane polyspecificity reagent, FACS + sequencing; frameworks hold sequencing errors
Procedure, shortened: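 Galactose-induced (36–48 hours) yeast carrying a synthetic nanobody display library were exposed to 10% biotinylated, detergent-solubilized Sf9 membrane reagent at 4 °C for 1 hour. FACS followed streptavidin microbead enrichment, using low and high (top ~1%) gates for expression (anti-HA) and reagent binding (streptavidin). Colony PCR, MiSeq 2 × 250 sequencing and CDR-length filtering followed. Labels for polyreactivity reflect the gate of origin.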

Sequence	polyreactivity (PSR sort gate)
QFQLVESGGGLVQAGGILRLSCAASGRIFKYYAMGWYRQEPGKERELVAAISRGGSTYYADSVKGRFTISRDNAKNTVYLQMNSLKPEDSAVYYCNAYRHGYVAYRRYDYWGQGTQVTVSS	high polyreactivity
QFQLVESGGGLVQAGGRLRLSCAASGSTLRRYAMGWYRQAPGKERELVAAITYRSGSTYYADSVKGRFTISRDNAKNTVYLEMNSLKPVDTAVYYCAKVGYVSKYWFAGDYWGQGTQVTVSS	high polyreactivity
QFQLVESGGGLVQAGGSLRLSCAASGFIFAVNAMGWYRQAPGKERELVAAISSSGTTNYADSVKGRFTISRDNAKNTVYLQMNSLKPEDTAVYYCNKRWRDKYPQYDYWGQGTQVTVSS	low polyreactivity
QFQLVESGGGLVQAGGSLRLSCAASGFIFKPYTMGWYRQAPGKERELVATITFSGGSTYYADSVKGRFTNSRDNAKNTVYLQMNSLKPEDTAVYYCAAPRFYRGYAIYDYWGQGTQVTVSS	low polyreactivity
QFQLVESGGGLVQAGGSLRLSCAASGFNFQYNAIGWYRQAPGKERELVAAITWTGTSTYADSVKGRFTISRDYAKNTVYLQMNSLKPEDTSVYYCAARYYAPRWFRYDYWGQGTQVTVSS	low polyreactivity
QFQLVESGGGLVQAGGSLRLSCAASGFTFPGYALGWSTQAPGKERELVAAINSSGGRTYYADSVKWRFTISRDNAKYTVYLQMNSLKPEDTEVYYCGATRWYIRARYNYWGHGTQVTVSS	high polyreactivity
QFQLVESGGGLVQAGGSLRLSCAASGFTFYPYAMGWSRQAPGKERELVAAITRSGTSTFYADSVKGRFTISRDNAKNTVYLQMNSLKPEDTAVYYCAKGYFFVGTDWESYYWGQGTQVTVSS	low polyreactivity
QFQLVESGGGLVQAGGSLRLSCAASGFTYYFYAMGWYRPAPGKERELVAAISRGGSTTYADSVKGRFTISRDNAKNTVYLQMYSLKPEDTAVYYCGADDYYDPHYEYDFWGQGTQVTVSS	low polyreactivity
QFQLVESGGGLVQAGGSLRLSCAASGIIFGRYTMGWYRDAPGKERELVAAITSSGITYYADSVKGRFTISRDNAKNTVYLQMNSLKPEDTAVYYCAADVGYWGRSRGYPSDDYDYWGQGTQVTVSS	low polyreactivity
QFQLVESGGGLVQAGGSLRLSCAASGITFGTNAMGWYRQATGKERELVARISSSDASTYYADSVKGRFTISRDNGKNTVYLQMNSLKPEDTAVYYCAADIYVTGYFRYDYWGQGTQVTVSS	low polyreactivity
QFQLVESGGGLVQAGGSLRLSCAASGITFTFNARGWYRQAPGKERELVAAITWSGGSPFYADSVKGRFTISRDNAKNTVYLQLNSLNPEDTAVYYCARDTELYVRWLDYWGQGTQVTVSS	low polyreactivity
QFQLVESGGGLVQAGGSLRLSCAASGNIFGYYALGWYRQAPGKEREFVAAISGGDSTNYADSVKGRFTNSRDNAKNTVYLQMNSLQPEDTAVYYCARDYWSGASGGYPYDYWGQGTQVTVSS	low polyreactivity
QFQLVESGGGLVQAGGSLRLSCAASGNTFTKYAMGWYRQAPGKDRELLAGITRGGSTNYADSVKGRFTISRDNAKNTVYFQMNSLKPEDTAVYYCNARPVYGSRFYSAVRMEYWGQGTQVTVSS	low polyreactivity
QFQLVESGGGLVQAGGSLRLSCAASGQILPYYAMGWYRQAPGKERELVAAISRTGGRTSYADSVNGRLTISRDNAKNTFYLQMNSLSPEDTAVYYCAAVGQSGGRRYDYWGQGTQVTVSS	high polyreactivity
QFQLVESGGGLVQAGGSLRLSCAASGRIFRVNAKGWYRPAPGKERELVAGITQGDGSTYYADSVKGRFTISRDNAKNTVYLQMNSLKPEDTAVYYCAASTGPDRQFDSWGQGTQVTVSS	low polyreactivity
QFQLVESGGGLVQAGGSLRLSCAASGRIFYLYAMGWYRQAPGKERELVAGITSGGRTNYADSVKGRFTISRDNGKNTVFLQMNSLKPEDSAVYYCAAGSLRYKYDYWGQGTQVTVSS	high polyreactivity
QFQLVESGGGLVQAGGSLRLSCAASGRTFSWSAMGWYRQAPGKERELVAAISASGGRTYYADSVKGRFTISRDNANNSVYLQMNSLKPEDTAVYYCAKVVKKIEFDYWGQGTEVTVSS	high polyreactivity
QFQLVESGGGLVQAGGSLRLSCAASGRTFWSNAMVWYRQAPGKERELVAAISGGARTNYADSVKGRFTISRDNAKNTVYLQMNSLKPEDTEVYFCAATPRYWQSRYDYWGKGTQVTVSS	high polyreactivity
QFQLVESGGGLVQAGGSLRLSCAASGSIFEPYAMGWYRQAPGKETELVATAITYSGGSTYYADSVKGRFTISRDNAKNTVYLQMNSLKPEDTAVYYCAADDWGDGVYKLDYWGQGTQVTVSS	low polyreactivity
QFQLVESGGGLVQAGGSLRLSCAASGSIFGVYVMGWSRQGAGKERELVAAITRGASTNYADSVKGRFTISRDNAKNTVYLQMNSLKPEDTAVYYCAAESGNRYEYWGQGTQVTVSS	low polyreactivity
QFQLVESGGGLVQAGGSLRLSCAASGSIFIPYAMGWYRQAPGKEREFVATITFGAASTYYADSVKGRFTISRDNAKNTVYLQMNSLKREDTAVYYCAAEWRRYEYADSWEYDYWGQGTQVTVSS	low polyreactivity
QFQLVESGGGLVQAGGSLRLSCAASGSIIWWNAMGWYRQAPGKERELVASIGDSTYYADSVKGRFTISRDNAKNTVYLQMNSLKPEDTAVYYCNAEVLNYLVFGYQLGYDYWGQGTQVTVSS	low polyreactivity
QFQLVESGGGLVQAGGSLRLSCAASGSILDGNTMGWYRQAPGKERELVDAISSLATSTYYADSVKGRFTISRDNAKNTVYLQINSLKPEDTAVYYCAALVRRKRTTSGDDYWGQGTQVTVSS	high polyreactivity
QFQLVESGGGLVQAGGSLRLSCAASGSIYRLNTMGWYRQAPGKERELVAAMSRRGGSTYYADSVKGRFTISRDNAKNTVYIQMNSLKPEDTAVYYCSADVTSFRHAPGYEYWGQGTQVTVSS	high polyreactivity
QFQLVESGGGLVQAGGSLRLSCAASGSTFIGYAMGWYRQAPGKERELVAAITGGGRTNYADSVKGRFTISRDNAKNTVYLQMNSLKPEDTAVYYCAARGVSRGYAKPYYSRGDYWGQGTQVTVSS	low polyreactivity
QFQLVESGGGLVQAGGSLRLSCAASGSTFIYNTMGWYRQAPGKERELVATIRRSGGITYYADSVKGRFTISRDNAKNTVYLQMNSLKPEDTAVYYCNAKPNRYSAKIVQYDSWGQGTQVTVSS	low polyreactivity
QFQLVESGGGLVQAGGSLRLSCAASGSTFKYYAKGWYRQAPGKERELVAAISARTGSTYYADSVKGRFTISRDNEKNTVYLQMNILKPEDTAVYYCNKLTWRGEVDYWGQGTQVTESS	high polyreactivity
QFQLVESGGGLVQAGGSLRLSCAASGSTFRGYTMGWYRQAPGKERELVAAIRSTTGRTYYADSVKGRFTISRENAKNTVYLQMNSLKPEDTAVYYCNKAYPREYYYWGQGTQVTVSS	high polyreactivity
QFQLVESGGGLVQAGGSLRLSCAASGSTFYTTDMGWYRQAPGKERELVASITSAGNTNYADSVKGRFTISRDNAKNSVYLQMNSLKPEDTAVYYYYYYQYDYWGQGTQVTVSS	low polyreactivity
QFQLVESGGGLVQAGGSLRLSCAASGSTSYRNAMGWYRQAPGKEREFVAAISWSGGSTYYADSVKGRFTISRDNAKNTVYLQMNSLKPEDTADYYSNADAYGTPEFTSYAVRYDYWGQGTQVTVSS	low polyreactivity
